Results as given in US20230279105A1 (SINGLE CELL TECHNOLOGY, published 2023).

B1: SCT-Fa138 (antibody, V domains shown)
VH: QVQLQQPGAELVRPGTSVKLSCKASGYTFTRYWMHWVRQRPGQGLEWIGVIDPSSSSTDYNQKFKGKATLTVDTSSSTAYMQLSSLTSEDSAVYYCARNDYDGGYFDYWGQGTTLTVSS
VL: DVVMTQSPLSLPVSLGDQASISCRSSQSLVHSNGITYLHWYLQKPGQSPNLLIYKVSNRFSGVPDRFSGSGSGTDFTLKISRVEAEDLGVYFCSQTTHVPWTFGGGTKLEIK
notes: murine IgG
B2: SCT-Fa141 (antibody, V domains shown)
VH: QVQLQQPGAELVRPGTSVNLSCKASGYTFTSYWMHWVKQRPGQGLEWLGVIDPSDSNTNYNQKFKGKATLTVDTSSSTAYMQLSSLTSEDSAVYYCSRNDYDGGYFDYWGQGTTLTVSS
VL: DVVMTQTPLSLPVSLGDQASISCRSSQSLVHSNGNTYLHWYLQKPGQSPKLLIYTVSNRFSGVPDRFSGSGSGTDFTLKISRVEAEDLGIYFCSQSTHVPWTFGGGTKLEIK
notes: murine IgG
B3: SCT-Fa142 (antibody, V domains shown)
VH: QVQLQQPGAELVRPGTSVRLSCKASGYSFTIYWMHWVKQRPGQGLEWIGVIDPSTSNTDYNQKFKGKATLTVDTSSSTAYMQLRSLSSEDSAVYYCARNDYDGGYFDYWGQGTTLTVSS
VL: DVVMTQTPLSLPVSLGDQASISCRSSQRLVHSNGNTYLHWYLQKTGQSPKLLIYKVSNRFSGVPDRFSGSGSGTDFTLKISRVEAEDLGVYFCSQSTHVPWTFGGGTKLEIK
notes: murine IgG
B4: SCT-Fa143 (antibody, V domains shown)
VH: QVQLQQPGAELVRSGTSVKLSCKASGYTFISYWMHWVKQRPGQGLEWIGVIDPSDTNTNYNQKFRGKATLTVDTSSSTAYMQLSSLTSEDSAVYFCARNDYDGGYFDYWGQGTTLTVSS
VL: DVVMTQTPLSLPGSLGDQASISCRSSQSLVHSNGNTYLHWYLQKSGQSPKLLIYKVSNRFSGVPDRFSGSGSGTDFTLKISRVEAEDLGLYFCSQTTHVPWTFGGGTKLEIK
notes: murine IgG
B5: SCT-Fa144 (antibody, V domains shown)
VH: QVQLQQPGAELVTPGASVKLSCKASGYTFTTYWMHWVKQRPGQGLEWIGEIDPSDSYRNYNQKFKGKATLTVDKSSSTAYMQLSSLTSEDSAVYYCARNYGSNYVGYFDYWGQGTALTVSS
VL: DIQMTQTTSSLSASLGDRVTISCRASQDITNYLNWYQQRPDGTVKLLIYYTSRLHSGVPSRFSGSGSGTDYSLTISNLAQGDIATYFCQQASTLPWTFGGGTKLDIK
notes: murine IgG
B6: SCT-Fa082 (antibody, V domains shown)
VH: QGQLQQPGAEVVKPGAAVKLSCKASGYTFTSYWMQWIKQRPGQGLEWIGEIDPSDNYTDYNQNFKGKATLTVDTSSSTAYLQLSSLTSEDSAVYYCAREGAFSSPFAYWGPGTLVTVSS
VL: DILMTQSPSSMSVSLGDTVSIICHASQDIRSNIGWLQQKPGKSFKGLIYHGTNLEDGVPSRFSGSGSGADYSLTISSLESEDFADYYCVQYVQFPRTFGGGTKLEIK
notes: murine IgG
B7: SCT-Fa078 (antibody, V domains shown)
VH: QGQLQQPGAEVVKPGAAVKLSCKASGYTFTSYWMQWIKQRPGQGLDWIGEIDPSDNYTDYNQNFKGKATLTVDTSSNTAYLQLSSLTSEDSAVYYCAREGAFSSPFAYWGPGTLVTVSS
VL: DILMTQSPSSMSVSLGDTVSIICHASQDIRSNIGWLQQKPGKSFKGLIYHGTNLEDGVPSRFSGSGSGADYSLTISSLESEDFADYYCVQYVQFPRTFGGGTKLEIK
notes: murine IgG
B8: SCT-Fa080 (antibody, V domains shown)
VH: QGQLQQPGAEVVKPGAAVKLSCKASGYTFTSYWMQWIKQRPGQGLEWIGEIDPSDNYTDYNQHFKGKATLTVDTSSSTAYLQLSSLTSEDSAVYYCAREGAFSSPFAYWGPGTLVTVSS
VL: DILMTQSPSSMSVSLGDTVSIICHASQDIRSNIGWLQQKPGKSFKGLIYHGTNLEDGVPSRFSGSGSGADYSLTISSLESEDFADYYCVQYVQFPRTFGGGTKLEIK
notes: murine IgG
B9: SCT-Fa081 (antibody, V domains shown)
VH: QGQLQQPGAEVVKPGAAVKLSCKASGYTFTSYWMQWIKQRPGQGLEWIGEIDPSDNYTDYNQNFKGKATLTVDTSSSTAYLQLSSLTSEDSAVYYCAKEGAFSSPFAYWGPGTLVTVSS
VL: DILMTQSPSSMSVSLGDTVSIICHASQDIRSNIGWLQQKPGKSFKGLIYHGTNLEDGVPSRFSGSGSGADYSLTISSLESEDFADYYCVQYVQFPRTFGGGTKLEIK
notes: murine IgG
B10: SCT-Fa148 (antibody, V domains shown)
VH: QVQLQQPGAEVVKPGASVKLSCKASGYTFTSYWMQWVKQRPGQGLEWIGEIDPSDNYTDYNQNFKGKATLTVDTSSSTAYMQLSSLTSEDSAVYYCAKEGAYSSPFAYWGPGTLVTVSA
VL: DILMTQSPSSMSVSLGDTVTIICHASQDIRSNIGWLRQKPGTSFKGLIYHGTNLEDGVPSRFSGSGSGADYSLTISSLESEDFADYYCVQYVQFPRTFGGGTKLEIK
notes: murine IgG
B11: SCT-Fa151 (antibody, V domains shown)
VH: QVQLQQPGSELVRPGTSVKLSCKASGYTFTSYWMHWVKQRPGQGLEWIGVIDPSDNNTHYNQKFTGKATLTVDTSSSTAYMHLSSLTSEDSAVFYCARNDYDGGYFDFWGQGTTLTVSS
VL: DVVMTQTPLSLPVSLGDHASISCRSSQSLVHSNGHTYLHWYLQKPGQSPKLLIDKVSNRFSGVPDRFSGSGSGTDFTLKISRVEAEDLGVYFCSQSTHVPWTFGGGTKLEIK
notes: murine IgG
B12: SCT-Fa158 (antibody, V domains shown)
VH: QVQLQQPGTELVKPGASVKVSCKASGYTFISYWMHWVKQRPGQGLEWIGNIDPNSGTTNYNEKFKTKATLTVDKSSSTAYMQLSSLTSEDSAVYYCARWGWDGFAYWGQGTLVTVSA
VL: DAVMTQTPLSLPVSLGDQASISCRSSQSLENSNGNTYLNWYLQKPGQSPQLLIYRVSTRFSGVLDRFSGSGSGTDFTLKISRVEAEDLGVYFCLQVTHVPYTFGGGTKLEIK
notes: murine IgG
B13: SCT-Fa152 (antibody, V domains shown)
VH: QVQLQQPGTELVKPGASVKVSCKASGYTFISYCMHWVKQRPGQGLDWIGNIDPNNGGPNYNEKFKTKATLTVDKSSSTAYMQLSSLTSEDSAVYYCARWGWDGFAYWGQGTLVTVSA
VL: DAVMTQTPLSLPVSLGDQASISCRSSQSLENSNGNTYLNWYLQKPGQSPQLLIYRVSNRFSGVLDRFSGSGSGTDFTLKISRVEAEDLGVYFCLQVTHVPYTFGGGTKLEIK
notes: murine IgG
B14: SCT-Fa153 (antibody, V domains shown)
VH: QVQLQQPGTELVKPGASVKVSCKASGYTFISYWMHWVKQRPGQGLDWIGNIDPNNGGTNYNEKFKSKATLTVDKSSSTAYMQLSSLTSEDSAVYYCARWGWDGFAYWGQGTLVTVSA
VL: DAVMTQTPLSLPVSLGDQASISCRSSQSLENSYGNTYLNWYLQKPGQSPQLLIYRVSTRFSGVLDRFSGSGSGTDFTLKISRVEAEDLGVYFCLQVTHVPYTFGGGTKLEIK
notes: murine IgG
B15: SCT-Fa154 (antibody, V domains shown)
VH: QVQLQQPGTELVKPGASVKVSCKASGYTFISYWMHWVKQRPGQGLEWIGNIDPNSGGTKYNEKFKSKAILTVDKSSSTAYMQLSSLTSEDSAVYYCTRWGWDGFAYWGQGTLVTVSA
VL: DAVMTQTPLSLPVSLGDQVSISCRSSQSLENSNGNTYLNWYLQKPGQSPQLLIYRISTRFSGVLDRFSGSGSGTDFTLKISRVEAEDLGVYFCLQVTHVPYTFGGGTKLEIK
notes: murine IgG
B16: SCT-Fa155 (antibody, V domains shown)
VH: QVQLQQPGTELVKPGASVKVSCKASGYTFISYWMHWVKQRPGQGLEWIGNIDPNSGGTNYNEKFKSKAILTVDKSSSTAYMQLSSLTSEDSAVYFCARWGWDGFAYWGQGTLVTVSA
VL: DVVMTQTPLSLPVSLGDQASISCRSSQSLENSNGNTYLNWYLQKPGQSPQLLIYRISTRFSGVLDRFSGSGSGTDFTLKISRVEAEDLGVYFCLQVTHVPYTFGGGTKLEIK
notes: murine IgG
B17: SCT-Fa156 (antibody, V domains shown)
VH: QVQLQQPGTELVKPGASVKVSCKASGYTFISYWMHWVKQRPGQGLEWIGNIDPNSGGTNYNEKFKSKAILTVDKSSSTAYMQLSSLTSEDSAVYYCTRWGWDGFAYWGQGTLVTVSA
VL: DAVMTQTPLSLPVSLGDQVSISCRSSQSLENSNGNTYLNWYLQKPGQSPQLLIYRISTRFSGVLDRFSGSGSGTDFTLKISRVEAEDLGVYFCLQVTHVPYTFGGGTKLEIK
notes: murine IgG
B18: SCT-Fa157 (antibody, V domains shown)
VH: QVQLQQPGTELVKPGASVKVSCKASGYTFISYWMHWVKQRPGQGLEWIGNIDPNSGITNYNEKFKSKAILTVDKSSSTAYMQLSSLTSEDSAVYYCARWGWDGFAYWGQGTLVTVSA
VL: DVVMTQTPLSLPVSLGDQASISCRSSQSLENSNGNTYLNWYLQKPGQSPQLLIYRISTRFSGVLDRFSGSGSGTDFTLKISRVEAEDLGVYFCLQVTHVPYTFGGGTKLEIK
notes: murine IgG
B19: SCT-Fa159 (antibody, V domains shown)
VH: QVQLQQPGTELVKPGASVKVSCKASGYTFISYWMHWVKQRPGQGLEWIGNIDPNYGGPNYNEKFKTKATLTVDKSSSTAYMQLSSLTSEDSAVYYCARWGWDGFAYWGQGTLVTVSA
VL: DAVMTQTPLSLPVSLGDQASISCRSSQSLENSNGNTYLNWYLQKPGQSPQLLIYRVSNRFSGVLDRFSGSGSGTDFTLKISRVEAEDLGVYFCLQITHVPYTFGGGTKLEIK
notes: murine IgG
B20: SCT-Fa160 (antibody, V domains shown)
VH: QVQLQQPGTELVKPGASVKVSCKASGYTFISYWMHWVKQRPGQGLEWIGNIDPNYGGPNYNEKFKTKATLTVDKSSSTAYMQLSSLTSEDSAVYYCARWGWDGFAYWGQGTLVTVSA
VL: DAVMTQTPLSLPVSLGDQASISCRSSQSLENSNGNTYLNWYLQKPGQSPQLLIYRVSNRFSGVLDRFSGSGSGTDFTLKISRVEAEDLGVYFCLQLTHVPYTFGGGTKLEIK
notes: murine IgG
B21: SCT-Fa164 (antibody, V domains shown)
VH: QVQLQQPGTELVKPGASVKVSCKASGYTFISYWMHWVKQRPGQGLEWIGNINPNNGGTNYNEKFKSKATLTVDKSSSTAYMQLSSLTSEDSAVYYCARWGWDGFAYWGQGTLVTVSA
VL: DAVMTQTPLSLPVSLGDQASISCRSSQSLENSNGNTYLNWYLQKPGQSPQLLIYRVSTRFSGVLDRFSGSGSGTDFTLKISRVEAEDLGVYFCLQVTHVPYTFGGGTKLEIK
notes: murine IgG

Target: T1, Human TIM-3 Human Fc tagged protein (human, fluorescently labeled with HiLyte Fluor 555 (sites not given))
T1 construct: Bought construct; also called TIM-3 protein tagged with human Fc; ACROBiosystems catalog no: TM3-H5258
Assay: capture slide probed with labeled TIM-3-Fc;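 note: IgG from single CD138-enriched plasma cells, isolated from lymphocytes, immobilized on a derivatized glass slide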

Row | Binder | binding result
1 | B1 | binds
2 | B2 | binds
3 | B3 | binds
4 | B4 | binds
5 | B5 | binds
6 | B6 | binds
7 | B7 | binds
8 | B8 | binds
9 | B9 | binds
10 | B10 | binds
11 | B11 | binds
12 | B12 | binds
13 | B13 | binds
14 | B14 | binds
15 | B15 | binds
16 | B16 | binds
17 | B17 | binds
18 | B18 | binds
19 | B19 | binds
20 | B20 | binds
21 | B21 | binds
